The record followed here is patent US20170029907, “GENERALIZABLE ASSAY FOR VIRUS CAPSID ASSEMBLY” (Indiana University Research and Technology Corporation, published 2017).

Data set [1] addresses T1, HBV capsid protein Cp183 (Hepatitis B virus, UniProt P03146 P03146:1-183). In words: FRET increase; 0.1 uM DNA. Particulars: chain copies: dimer (stated); assembles into capsids; label: Cy3 and Cy5 at the two ends. As for the experimental part: (§1) Assembly was monitored by fluorescence. All reactions were carried out at 21° C. For the Cy3 donor and Cy5 acceptor fluorophores, fluorescence emission spectra for FRET experiments was measured from 555-710 nm. For measuring FRET in titrations, donor and acceptor excitation wavelengths were 545 and 645 nm respectively. Acceptor emission was measured at 670 nm.
For comparison, DA was titrated with Cp183 and the results were compared to those obtained with GagΔ. FIGS. 4A and 4B show the spectra for HIV-1 GagΔ and HBV Cp183 respectively. Spectra obtained by titrating DA with GagΔ and Cp183 both show increases in FRET signal.

Data set [2] has as its target T1, HBV capsid protein Cp183. In words: intermolecular FRET and light scattering; 1 uM DNA; maximum near 3:1 then signal falls by dilution. As to conditions: chain copies: dimer (stated); assembles into capsids; label: Cy3 (D27) or Cy5 (A27). Here is the method:
as §1
Using the optimized A:D ratio, we evaluated the sensitivity of this FRET assay for assembly. This was necessary to determine if reaction volumes and concentrations could be lowered to physiologically relevant levels. […] The minimum detectable concentration of DNA in these assays is 50 nM. Initial results shown in FIG. 1 are protein titrations of 1 μM DNA showing the assay works under more aggressive conditions. Assembly led to an increase in FRET, that was maximal at a specific protein concentration and then fell as more protein was added.

Data set [3] concerns the target T2, RRV capsid protein (Ross River virus, UniProt P08491 P08491:1-270). Kind of data set: intermolecular FRET; 1 uM DNA; saturates at 4 proteins per oligo. Particulars: chain copies: assembles into core-like particles; about 4 per oligonucleotide; label: Cy3 (D27) or Cy5 (A27).
A further data set deals with T3, BMV capsid protein (Brome mosaic virus, UniProt P03602 P03602:1-189).
T3 sequence: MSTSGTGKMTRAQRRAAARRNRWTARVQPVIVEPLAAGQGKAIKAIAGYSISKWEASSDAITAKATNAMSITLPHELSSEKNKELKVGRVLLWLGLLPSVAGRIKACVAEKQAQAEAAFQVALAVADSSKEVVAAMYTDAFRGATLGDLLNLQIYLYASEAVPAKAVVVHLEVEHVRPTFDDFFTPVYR
Kind of data set: intermolecular FRET; 1 uM DNA; saturates at about 10 proteins per oligo. As to conditions: chain copies: assembles into capsids; label: Cy3 (D27) or Cy5 (A27).

The target in data set [4] is T2, RRV capsid protein. Kind of data set: light scattering, DLS and EM; 50-170 mM NaCl; ionic strength dependent pseudo-critical concentration. As to conditions: chain copies: assembles into core-like particles; about 4 per oligonucleotide.

T2 sequence (P08491 1-270, one chain of several): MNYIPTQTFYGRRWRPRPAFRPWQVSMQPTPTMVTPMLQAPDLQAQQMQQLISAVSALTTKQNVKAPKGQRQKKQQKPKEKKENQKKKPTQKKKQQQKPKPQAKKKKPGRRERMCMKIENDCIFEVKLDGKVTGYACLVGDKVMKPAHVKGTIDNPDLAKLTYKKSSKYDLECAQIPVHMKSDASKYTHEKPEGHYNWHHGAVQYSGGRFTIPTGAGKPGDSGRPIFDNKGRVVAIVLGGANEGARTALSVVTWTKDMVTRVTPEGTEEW
T1 sequence (P03146 whole entry, one chain of several): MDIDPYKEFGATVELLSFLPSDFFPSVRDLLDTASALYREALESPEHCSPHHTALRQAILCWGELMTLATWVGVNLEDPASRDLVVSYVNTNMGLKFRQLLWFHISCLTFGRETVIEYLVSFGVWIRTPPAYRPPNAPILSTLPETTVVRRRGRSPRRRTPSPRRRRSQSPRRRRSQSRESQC

B1: DA 40-mer (ssDNA)
DNA: TGTGTGTGTGAAAAAAAAAAAAAAAAAAAATGTGTGTGTG
Turning to B1, the binding result in the data set with HBV capsid protein Cp183 [1] is “binds”.

B2: 27-mer D27/A27 1:1 mix (ssDNA)
DNA: TACCCACGCTCTCGCAGTCATAATTCG
With B2, the binding result with HBV capsid protein Cp183 [2], with RRV capsid protein [3] and in the data set with BMV capsid protein was “binds” each time.

B3: unlabeled 27-mer (ssDNA)
DNA: TACCCACGCTCTCGCAGTCATAATTCG
Take B3: in the data set with RRV capsid protein [4], the binding result is “binds”.
